In IntAct's records for PubMed 21295698:

Experiments:
ogt1_human OGT [1] = molecular target: ogt1_human OGT (UniProt O15294)
ogt1_human OGT [2] = molecular target: ogt1_human OGT (UniProt O15294); remark: listed apart in the source

Chain of UniProt O15294 (O15294 whole entry): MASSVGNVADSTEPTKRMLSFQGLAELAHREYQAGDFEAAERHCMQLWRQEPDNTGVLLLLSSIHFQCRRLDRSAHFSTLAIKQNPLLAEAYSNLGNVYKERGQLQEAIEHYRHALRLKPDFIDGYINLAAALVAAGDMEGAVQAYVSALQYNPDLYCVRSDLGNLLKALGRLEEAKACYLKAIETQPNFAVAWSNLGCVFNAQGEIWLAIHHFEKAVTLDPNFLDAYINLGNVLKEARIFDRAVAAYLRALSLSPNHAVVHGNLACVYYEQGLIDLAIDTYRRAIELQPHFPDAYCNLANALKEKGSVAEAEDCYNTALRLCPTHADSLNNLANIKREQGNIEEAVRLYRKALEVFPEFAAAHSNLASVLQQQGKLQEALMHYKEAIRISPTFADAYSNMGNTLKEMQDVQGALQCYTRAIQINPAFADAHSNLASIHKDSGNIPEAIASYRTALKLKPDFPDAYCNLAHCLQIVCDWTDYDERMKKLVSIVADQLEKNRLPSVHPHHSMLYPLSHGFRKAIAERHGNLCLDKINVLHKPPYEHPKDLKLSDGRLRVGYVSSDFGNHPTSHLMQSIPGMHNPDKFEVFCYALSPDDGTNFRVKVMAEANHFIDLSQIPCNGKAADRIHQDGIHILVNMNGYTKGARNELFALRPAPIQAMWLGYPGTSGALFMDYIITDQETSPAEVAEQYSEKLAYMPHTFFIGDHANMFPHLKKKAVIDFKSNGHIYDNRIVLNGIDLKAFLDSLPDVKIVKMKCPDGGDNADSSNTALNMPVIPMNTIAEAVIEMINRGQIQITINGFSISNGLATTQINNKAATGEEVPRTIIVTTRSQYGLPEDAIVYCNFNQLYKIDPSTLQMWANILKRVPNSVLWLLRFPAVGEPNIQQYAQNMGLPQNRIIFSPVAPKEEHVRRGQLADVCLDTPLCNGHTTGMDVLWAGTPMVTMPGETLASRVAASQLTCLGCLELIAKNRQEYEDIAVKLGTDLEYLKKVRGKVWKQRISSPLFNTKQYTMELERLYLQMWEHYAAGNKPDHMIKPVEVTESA

Substance | effect of a mutation on the interaction (ogt1_human OGT [1]) | effect of a mutation on the interaction (ogt1_human OGT [2])
Host cell factor 1 (Homo sapiens), P51610 H1083A | decreasing interaction | 
Host cell factor 1 (Homo sapiens), P51610 C1075A | decreasing interaction | 
Host cell factor 1 (Homo sapiens), P51610 T1087A | disrupting interaction | 
Host cell factor 1 (Homo sapiens), P51610 E1081A | disrupting interaction | increasing interaction
Host cell factor 1 (Homo sapiens), P51610 T1085A | decreasing interaction | 
Host cell factor 1 (Homo sapiens), P51610 T1088A | disrupting interaction | 
Host cell factor 1 (Homo sapiens), P51610 T1082A | decreasing interaction | 
Host cell factor 1 (Homo sapiens), P51610 T1090A | disrupting interaction | 
Host cell factor 1 (Homo sapiens), P51610 P1078A | decreasing interaction | 
Host cell factor 1 (Homo sapiens), P51610 T1092A | disrupting interaction | 
Host cell factor 1 (Homo sapiens), P51610 P1079A | decreasing interaction | 
Host cell factor 1 (Homo sapiens), P51610 C1080A | decreasing interaction | 
Host cell factor 1 (Homo sapiens), P51610 N1077A | decreasing interaction | 
